“Also recorded” adds a separate entry of the source.
Columns and labels:
[1] = biological target: T1, HER3 (extracellular domain) (Homo sapiens, UniProt P21860); assay: ELISA binding specificity on recombinant soluble EGFR, HER2, HER3; settings: plate coated with 1 μg/ml recombinant soluble EGFR, HER2 or HER3 extracellular domain
T1 construct: recombinant soluble EGFR, HER2, or the extracellular domain of HER3
Method: (§1) The average OD values of triplicates are presented. The values for egFR are superimposed on the values for HER2. […] EGFR, HER2 or HER3-transfected SP 2/0 cells were stained with 1 μg/ml of purified antibody, followed by PE-goat anti-mouse IgG.
(§2) An ELISA plate was coated with 1 μg/ml of recombinant soluble EGFR, HER2, or the extracellular domain of HER3.

[2] = biological target: T2, HER3-transfected SP 2/0 cells (Homo sapiens, UniProt P21860); assay: Flow cytometry binding specificity on transfected SP 2/0 cells; settings: EGFR, HER2 or HER3 transfected SP2/0 cells, 1 μg/ml purified antibody
T2 construct: expressed in transfected cells; host or cells: SP 2/0 cells
T2 sequence (P21860 20-1342): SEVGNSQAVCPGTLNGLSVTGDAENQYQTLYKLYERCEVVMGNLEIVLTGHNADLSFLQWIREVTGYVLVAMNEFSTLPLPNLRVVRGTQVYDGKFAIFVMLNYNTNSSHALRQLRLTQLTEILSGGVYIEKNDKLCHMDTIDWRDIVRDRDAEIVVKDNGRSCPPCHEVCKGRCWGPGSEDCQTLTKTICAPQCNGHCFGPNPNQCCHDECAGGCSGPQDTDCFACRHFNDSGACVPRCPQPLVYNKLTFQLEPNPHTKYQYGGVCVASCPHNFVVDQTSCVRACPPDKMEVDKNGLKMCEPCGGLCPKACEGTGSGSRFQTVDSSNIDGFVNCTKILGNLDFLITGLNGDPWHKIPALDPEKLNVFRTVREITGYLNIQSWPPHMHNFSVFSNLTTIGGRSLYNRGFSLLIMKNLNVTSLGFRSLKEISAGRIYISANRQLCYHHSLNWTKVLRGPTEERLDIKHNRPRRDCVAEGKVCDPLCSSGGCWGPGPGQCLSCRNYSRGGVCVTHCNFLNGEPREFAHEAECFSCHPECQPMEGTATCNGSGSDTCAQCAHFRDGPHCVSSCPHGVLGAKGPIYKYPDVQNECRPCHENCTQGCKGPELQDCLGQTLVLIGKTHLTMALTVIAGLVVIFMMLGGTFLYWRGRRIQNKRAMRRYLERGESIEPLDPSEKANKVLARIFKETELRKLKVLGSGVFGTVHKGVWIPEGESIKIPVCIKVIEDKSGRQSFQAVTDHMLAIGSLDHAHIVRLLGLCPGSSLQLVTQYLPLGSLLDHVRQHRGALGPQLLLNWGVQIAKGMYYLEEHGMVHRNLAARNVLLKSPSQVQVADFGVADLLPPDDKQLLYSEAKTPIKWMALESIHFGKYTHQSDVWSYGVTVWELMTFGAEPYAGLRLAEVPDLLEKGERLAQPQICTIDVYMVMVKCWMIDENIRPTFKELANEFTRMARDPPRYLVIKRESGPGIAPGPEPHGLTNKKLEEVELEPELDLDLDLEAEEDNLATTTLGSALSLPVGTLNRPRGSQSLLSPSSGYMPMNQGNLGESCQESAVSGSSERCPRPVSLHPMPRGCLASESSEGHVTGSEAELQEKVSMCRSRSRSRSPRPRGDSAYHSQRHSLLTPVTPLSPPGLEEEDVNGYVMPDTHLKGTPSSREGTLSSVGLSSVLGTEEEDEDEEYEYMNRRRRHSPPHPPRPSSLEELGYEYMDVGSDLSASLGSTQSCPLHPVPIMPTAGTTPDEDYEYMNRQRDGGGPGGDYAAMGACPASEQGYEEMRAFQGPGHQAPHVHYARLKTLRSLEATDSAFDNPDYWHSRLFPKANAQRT
Method: as §1, §2

[3] = biological target: T3, recombinant soluble HER3 (Homo sapiens, UniProt P21860); assay: ELISA for blocking of NRG1 binding to HER3; settings: 100 ng/ml biotin-conjugated NRG1, increasing antibody concentrations
T3 construct: coated with 1 μg/ml of recombinant soluble HER3
T3 sequence (P21860 20-643 limits assumed): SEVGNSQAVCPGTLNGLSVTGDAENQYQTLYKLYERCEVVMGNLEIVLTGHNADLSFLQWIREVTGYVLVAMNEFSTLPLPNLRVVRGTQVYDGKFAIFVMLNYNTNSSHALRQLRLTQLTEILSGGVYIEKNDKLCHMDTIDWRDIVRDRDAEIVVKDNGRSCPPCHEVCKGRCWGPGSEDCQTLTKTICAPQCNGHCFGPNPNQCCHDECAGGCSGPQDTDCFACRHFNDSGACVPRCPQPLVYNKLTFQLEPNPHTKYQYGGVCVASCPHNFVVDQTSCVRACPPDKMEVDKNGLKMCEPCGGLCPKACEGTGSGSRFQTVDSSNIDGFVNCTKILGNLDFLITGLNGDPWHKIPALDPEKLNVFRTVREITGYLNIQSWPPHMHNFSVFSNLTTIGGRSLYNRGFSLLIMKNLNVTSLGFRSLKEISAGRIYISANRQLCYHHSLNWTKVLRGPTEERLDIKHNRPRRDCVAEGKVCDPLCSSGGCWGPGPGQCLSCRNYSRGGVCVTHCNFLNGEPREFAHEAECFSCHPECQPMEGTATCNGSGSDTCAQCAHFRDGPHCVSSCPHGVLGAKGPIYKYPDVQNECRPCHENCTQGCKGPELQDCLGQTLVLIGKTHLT
Excerpt: (§3) The binding of NRG1 to HER3 (vertical axis) was detected by HRP-streptavidin. […] NRG1 binding was detected by PE-streptavidin. The mean fluorescent intensities (MFI) of NRG1 bound are presented.
(§4) The binding of NRG1 to HER3 was detected by HRP-streptavidin. […] Thus, the 1A5 antibody is herein referred to as a ligand-independent antibody. […] Thus, the 3D4 antibody is herein referred to as a ligand-dependent antibody. […] NRG1 binding was detected by PE-streptavidin.

[4] = biological target: T2, HER3-transfected SP 2/0 cells; assay: Flow cytometry for blocking of NRG1 binding to HER3; settings: 100 ng/ml biotin-conjugated NRG1, increasing antibody concentrations
Excerpt: as §3, §4

[5] = biological target: T3, recombinant soluble HER3; assay: Sandwich ELISA for epitopes (1A5 capture, HRP-3D4 detection); type: binding; settings: plate coated with 2 μg/ml 1A5, 200 ng/ml HRP-conjugated 3D4
Method: An ELISA plate was coated with 2 μg/ml of purified 1A5 and then incubated with indicated concentrations of recombinant soluble HER3 in the presence of 200 ng/ml HRP-conjugated 3D4. The binding of 3D4 to HER3 was detected by chemiluminescence substrate. The average counts per second of triplicates are presented.
An ELISA plate was coated with 2 μg/ml of purified 1A5 and then incubated with increasing concentrations of HER3 in the presence of 200 ng/ml HRP-conjugated 3D4. The binding of 3D4 antibody to HER3 was detected by chemiluminescence.

[6] = tested on: A549 human lung cancer xenograft; assay: A549 human lung cancer xenograft model; type: in vivo
[7] = tested on: N87 human gastric cancer xenograft; assay: N87 human gastric cancer xenograft model; type: in vivo; settings: in combination with lapatinib
[8] = tested on: MKN28 human gastric cancer xenograft; assay: MKN28 human gastric cancer xenograft model; type: in vivo; settings: in combination with lapatinib
[9] = tested on: HT29 human colon cancer xenograft; assay: HT29 human colon cancer xenograft model; type: in vivo
[10] = tested on: DR5-apoptosis resistant human breast cancer ZR75-1 cell line; assay: Functional screen for apoptosis of DR5-resistant cells; type: cell-based; settings: in the presence of an agonistic DR5-antibody selected from TRA-8 or CTB006
Excerpt: In a functional screen of a hybridoma library made against the DR5-apoptosis resistant human breast cancer ZR75-1 cell line, the 1A5 antibody was identified. […] The target of the 1A5 antibody was identified to be HER3 by immunoprecipitation with the 1A5 antibody and subsequent mass spectrometry analysis.

[11] = biological target: T4, HER2 (Homo sapiens, UniProt P04626); assay: HER2 autophosphorylation in pancreatic cancer cell lines; type: cell-based; design: endogenous in cells
[12] = biological target: T5, HER3 (Homo sapiens, UniProt P21860); assay: HER3 tyrosine phosphorylation ELISA, antibodies with or without tyrosine kinase inhibitor; type: cell-based; design: endogenous in cells; host or cells: N87; tyrosine phosphorylation of HER3: dose or concentration left out as unconfirmed; settings: 24 hours; for tyrosine phosphorylation levels of HER3: 20 μg/ml antibody
T5 sequence (P21860 20-1342): as the sequence (P21860 20-1342) above

[13] = biological target: T5, HER3; assay: Ligand-independent activation (autophosphorylation) of HER3 in cancer cells, ELISA; type: cell-based; design: endogenous in cells; host or cells: N87, BT474, ZR75-30, Panc 2.03
Method: The ELISA plate was coated with 3F8 anti-HER3 antibody (recognizing a different epitope than 1A5 and 3D4) to capture total HER3 (Total HER3, right graph for FIGS. 4A-4D). […] The total HER3 was detected by HRP-conjugated 1E8 anti-HER3 antibody. The tyrosine-phosphorylated HER3 and total HER3 levels were then measured by chemiluminescence.
The ELISA plate was coated with 3F8 anti-HER3 antibody (recognizing a different epitope than the 1A5 antibody) to capture total HER3.

[14] = biological target: T5, HER3; assay: Ligand-dependent (NRG1) activation of HER3 in cancer cells, ELISA; type: cell-based; design: endogenous in cells; host or cells: N87, BT474, ZR75-30, Panc 2.03; settings: N87, BT474, ZR75-30, Panc 2.03 cells; antibody 24 hours, then 100 pg/ml NRG1 1 hour
Excerpt: (§5) The ELISA plate was coated with 3F8 anti-HER3 antibody (recognizing a different epitope than 1A5 and 3D4) to capture total HER3.
as §5
An ELISA plate was coated with 3F8 anti-HER3 antibody to capture total HER3.

[15] = biological target: T6, EGFR (Homo sapiens, UniProt P00533); assay: EGFR autophosphorylation in pancreatic cancer cell lines; type: cell-based; design: endogenous in cells; host or cells: panel of eight pancreatic cancer cell lines
[16] = biological target: T4, HER2; assay: HER2 tyrosine phosphorylation ELISA, antibodies with or without lapatinib; type: cell-based; design: endogenous in cells; host or cells: N87 gastric cancer cells; ZR75-30 breast cancer cells; settings: 24 hours, without lapatinib
[17] = biological target: T6, EGFR; assay: EGFR tyrosine phosphorylation ELISA, antibodies with or without tyrosine kinase inhibitor; settings: 24 hours
[18] = biological target: T5, HER3; assay: HER3 autophosphorylation in pancreatic cancer cell lines; type: cell-based; design: endogenous in cells; host or cells: N87, BT474, ZR75-30, Panc 2.03, A549 and a panel of human cancer cell lines; settings: single agents

T1 sequence (P21860 20-643 limits assumed): as the sequence (P21860 20-643 limits assumed) above

B1: 1A5: ligand-independent HER3 antibody; heavy chain variable region SEQ ID NO:1, light chain variable region SEQ ID NO:2 (antibody, V domains shown)
VH: MEWIWIFLFIFSGTAGVHSQVQLQQSGAELARPGASVKLSCKASGYTFTDNYINWMKQRPGQGLEWIGEIYPGSGNTYYNEKFKGKATLTADKSSSTAYMQLSSLTSEESAVYFCARSPNLRLYYFDYWGQGTTLTVSS
VL: MVSTSQLLGLLLFWTSASRCDIVMTQSPATLSVTPGDRVSLSCRASQSINDYLYWYQQKLHESPRLLIKFASHSISGIPSRFSGSGSGSDFTLSINSVEPEDVGVYYCQNGHSFPLTFGAGTKLELK
binding specificity by ELISA [1]: specifically bind HER3; also recorded: specific binding
binding specificity by flow cytometry [2]: specifically bind HER3
blocking of NRG1 binding to HER3 (ELISA) [3]: failed in block NRG1 binding to HER3; also recorded: does not block ligand binding to HER3
blocking of NRG1 binding to HER3 (flow cytometry) [4]: failed to block NRG1 binding to HER3; also recorded: does not block ligand binding to HER3
epitopes of HER3 bound [5]: bind different epitopes of HER3; also recorded: recognize different epitopes on HER3
tumor volume ([6]; antibodies without Erbitux): reduced tumor volume
tumor volume ([6]; in combination with Erbitux): reduced tumor volume more than administration of Erbitux alone
tumor volume [7]: synergistically reduces tumor volume
tumor volume [8]: synergistically reduces tumor volume
tumor volume ([9]; antibodies or lapatinib alone): had the greatest tumor volume reducing effect; also recorded: reduces tumor volume
tumor volume ([9]; in combination with lapatinib): synergistically reduces tumor volume
apoptosis of DR5-resistant ZR75-1 cells [10]: apoptosis of the DR5-resistant ZR75-1 cells was observed
autophosphorylation of HER2, 1A5 with lapatinib ([11]; in combination with lapatinib): significantly reduced levels of HER2 autophosphorylation; also recorded: reduced the levels of HER2 autophosphorylation to a greater extent than the 1A5 antibody or lapatinib alone
autophosphorylation of HER2 ([11]; single agents): partially inhibited autophosphorylation of HER2
tyrosine phosphorylation levels of HER3, effect of adding Erlotinib ([12]; A549 cells, 20 μg/ml antibody with 100 nM Erlotinib): enhanced
tyrosine phosphorylation levels of HER3 ([12]; A549 cells, without Erlotinib): reduced the tyrosine-phosphorylation levels of HER3
tyrosine phosphorylation of HER3 ([12]; N87 cells, without lapatinib): reduced the tyrosine phosphorylation of HER3
tyrosine phosphorylation of HER3, effect of adding lapatinib ([12]; N87 cells, with 100 nM lapatinib): enhanced
tyrosine phosphorylation levels of HER3, effect of adding lapatinib ([12]; ZR75-30 cells, 20 μg/ml antibody with 100 nM lapatinib): enhanced
tyrosine phosphorylation levels of HER3 ([12]; ZR75-30 cells, without lapatinib): reduced the tyrosine phosphorylation levels of HER3
inhibition of ligand-independent activation of HER3 in a panel of human cancer cell lines ([13]; 20 μg/ml 1A5, 24 hours): inhibition of ligand-independent activation of HER3 in a panel of human cancer cells lines
inhibition of autophosphorylation of HER3 ([13]; N87, BT474, ZR75-30, Panc 2.03 cells, increasing concentrations, 24 hours): capable of inhibiting autophosphorylation of HER3 to a greater extent than the ligand-dependent 3D4 antibody; also recorded: dose-dependent inhibition of ligand-independent activation (autophosphorylation) of HER3
inhibition of ligand-dependent activation of HER3 [14]: capable of inhibiting ligand-dependent activation of HER3 to a lesser extent than the ligand-dependent 3D4 antibody
autophosphorylation of EGFR, 1A5 with erlotinib ([15]; in combination with erlotinib): capable of enhancing the inhibitory activity of erlotinib; also recorded: able to enhance the inhibitory activity of erlotinib
autophosphorylation of EGFR, 1A5 with lapatinib ([15]; in combination with lapatinib): not able to enhance the activity of lapatinib
autophosphorylation of EGFR ([15]; single agents): partially inhibited EGFR autophosphorylation in a HER3-dependent fashion
tyrosine phosphorylation level of HER2 ([16]; N87 cells): did not affect the level of tyrosine phosphorylation for EGFR or HER2
tyrosine phosphorylation levels of HER2 ([16]; ZR75-30 cells, 20 μg/ml antibody): did not affect tyrosine phosphorylation levels of HER2
tyrosine phosphorylation levels of EGFR ([17]; A549 cells, 20 μg/ml antibody, without Erlotinib): did not affect tyrosine phosphorylation levels of EGFR
tyrosine phosphorylation level of EGFR ([17]; N87 cells, 20 mg/ml antibody, without lapatinib): did not affect the level of tyrosine phosphorylation for EGFR or HER2
autophosphorylation of HER3 [18]: inhibited autophosphorylation of HER3 in all HER3 positive cell lines except for Panc1; also recorded: inhibited autophosphorylation of HER3 in all HER3 positive cell lines, except Panc 1

— US9637543B2, “HER3 antibodies and uses thereof” (THE UAB RESEARCH FOUNDATION, priority 2011, dated 2017)
